In test [1] the target is IFP1.4 (UniProt Q9RZA4). Description: AUC.
The target of test [2] is IFP2.0 (UniProt Q9RZA4). In words: AUC.

Drawing on PMC4521985, this text covers Kd and stoichiometry N for 2 substances.

pKd: −log10 of the molar value.

By pKd is commonly meant the Kd on a negative log10 scale, so that one unit is a factor of ten. Read a low pKd as a high Kd. By stoichiometry N is commonly meant a count of units in the complex or per binding partner. As to IFP1.4 (from UniProt Q9RZA4 1-321), in test [1], the negative-log Kd (pKd) was 5.11 and the stoichiometry N was determined as 2.

In test [2], IFP2.0 (from UniProt Q9RZA4 1-321) had a pKd of 5.43 and a stoichiometry N of 2.
